Experimental findings from paper PMC2864582 are described below.

Holding throughout (experiment): fluorescence quenching
The target in data set [1] is T1, hparp486 (Homo sapiens, UniProt P09874 1-486).
Data set [2] addresses T1, hparp486. The source holds these as a separate data set.
Data set [3] has as its target T1, hparp486. The source holds these as a separate data set.

Where two headings read alike, the source gives them in different places.

T1 sequence (P09874 1-486): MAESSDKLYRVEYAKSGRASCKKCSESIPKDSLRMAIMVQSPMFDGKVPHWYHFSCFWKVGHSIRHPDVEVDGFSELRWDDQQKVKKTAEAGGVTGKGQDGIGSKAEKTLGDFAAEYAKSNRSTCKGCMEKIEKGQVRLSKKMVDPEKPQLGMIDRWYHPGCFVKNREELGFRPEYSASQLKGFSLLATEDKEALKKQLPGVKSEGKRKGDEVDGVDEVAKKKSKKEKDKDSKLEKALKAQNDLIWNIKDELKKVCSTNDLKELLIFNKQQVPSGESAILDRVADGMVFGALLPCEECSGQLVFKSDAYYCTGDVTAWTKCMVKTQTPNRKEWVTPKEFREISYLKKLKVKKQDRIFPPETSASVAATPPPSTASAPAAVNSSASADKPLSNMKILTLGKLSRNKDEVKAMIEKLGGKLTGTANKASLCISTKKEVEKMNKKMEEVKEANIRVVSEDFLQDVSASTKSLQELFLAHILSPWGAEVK

B1: 30Blunt (dsDNA)
DNA 1: ATCAGATAGCATCTGTGCGGCCGCTTAGGG
DNA 2: CCCTAAGCGGCCGCACAGATGCTATCTGAT
Molecule B1 gave a Kd in data set [1] of 282 nM. That is a sub-micromolar value.

B2: 30Ext (pos. B) (dsDNA)
DNA 1: ATCAGATAGCATCTGTGCGGCCGCTTAGGGTTAGGG
DNA 2: CCCTAAGCGGCCGCACAGATGCTATCTGAT
As to B2, the Kd in data set [2] was 130 nM. That is a sub-micromolar value.

B3: 30Ext (pos. A) (dsDNA)
DNA 1: ATCAGATAGCATCTGTGCGGCCGCTTAGGGTTAGGG
DNA 2: CCCTAAGCGGCCGCACAGATGCTATCTGAT
Turning to B3, in data set [3], the Kd was determined as 68 nM.

What is called Kd is a measure of binding affinity in units of concentration.
